Reference: patent US20220064275A1 (SCHOLAR ROCK, published 2022)
Like-named read-outs stand apart in the source and are kept apart here.

How the values were obtained:
[1] = target: T1, human LTBP1-proTGFβ1 complex (human, UniProt Q14766 873-1507); assay: BLI (Octet)
T1 construct: range 873-1507; biotinylated in Octet and MSD-SET; also called hLTBP1-proTGFβ1; hLTBP1

[2] = target: T2, human LTBP3-proTGFβ1 complex (human, UniProt Q9NS15 866-1039); assay: BLI (Octet)
T2 construct: range 866-1039; also called hLTBP3-proTGFβ1; hLTBP3

[3] = target: T3, human GARP-proTGFβ1 complex (human, UniProt Q14392 20-627; P01137 30-390); assay: BLI (Octet)
T3 construct: also called hGARP-proTGFβ1; hGARP

[4] = target: T4, human LRRC33-proTGFβ1 complex (human, UniProt Q86YC3 19-650; P01137 30-390); assay: BLI (Octet)
T4 construct: also called hLRRC33-proTGFβ1; hLRRC33

[5] = target: T1, human LTBP1-proTGFβ1 complex; assay: MSD-SET, solution equilibrium titration
Description: (§1) MSD-SET assays were performed to measure affinities of the antibodies at equilibrium. Briefly, each test antibody was diluted 3-5 fold and samples were mixed with biotinylated antigen in a 48-well dish. The SET samples were equilibrated for 20-24 hours at room temperature. Meanwhile, a capture plate was coated with IgG (20 nM) and incubated overnight at 4° C. or 30 minutes at room temperature, followed by a blocking step with 5% BSA. After the capture plate was washed three times, SET samples were added and incubated for 150 seconds. The plate was washed once to remove unbound complexes. 250 ng/ml SA-Sulfotag was added then washed 3 times. 2× Read Buffer was added, and signals from the labeled bound complexes were read with the use of QuickPlex™ SQ 120 instrument.
(§2) As an example, MSD standard plates (MSD) were coated with a 20 nM solution of monoclonal antibody in PBS for 30 min at room temperature or overnight at 4° C. […] After 20-24 hours of equilibration, the antibody-coated plate was blocked with Blocking Buffer A (MSD) for 30 minutes at room temperature and washed with wash buffer (PBS, 0.1% BSA, 0.05% Tween-20) before adding the equilibrated antibody-antigen complexes to the plate for exactly 2.5 minutes. The plate was washed again with wash buffer before adding 250 ng/ml SULFO-TAG-labeled streptavidin secondary reagent (MSD) in PBS with 0.1% BSA. After washing with wash buffer, plates were read in MSD read buffer (MSD) using the MESO QuickPlex SQ 120 (MSD). The binding data were processed by nonlinear curve fitting in Prism 7 software (Graphpad) to calculate equilibrium binding KD values.

[6] = target: T2, human LTBP3-proTGFβ1 complex; assay: MSD-SET, solution equilibrium titration
Description: as §1, §2

[7] = target: T3, human GARP-proTGFβ1 complex; assay: MSD-SET, solution equilibrium titration
Description: as §1, §2

[8] = target: T4, human LRRC33-proTGFβ1 complex; assay: MSD-SET, solution equilibrium titration
Description: as §1, §2

[9] = target: T5, murine LTBP1-proTGFβ1 complex (mouse, UniProt Q8CG19 339-1712; P04202 30-390, limits assumed); assay: MSD-SET, solution equilibrium titration
T5 construct: also called mLTBP1-proTGFβ1
Description: as §1, §2

[10] = target: T6, murine LTBP3-proTGFβ1 complex (mouse, UniProt Q61810 41-1245; P04202 30-390, limits assumed); assay: MSD-SET, solution equilibrium titration
T6 construct: also called mLTBP3-proTGFβ1
Description: as §1, §2

[11] = target: T7, murine GARP-proTGFβ1 complex (mouse, UniProt G3XA59 18-628; P04202 30-390); assay: MSD-SET, solution equilibrium titration
T7 construct: Soluble murine complex; also called mGARP-proTGFβ1
Description: as §1, §2

[12] = target: T8, murine LRRC33-proTGFβ1 complex (mouse, UniProt Q8BMT4 20-651, limits assumed); assay: MSD-SET, solution equilibrium titration
T8 construct: also called mLRRC33-proTGFβ1
Description: as §1, §2

[13] = target: T1, human LTBP1-proTGFβ1 complex; assay: MSD-SET, solution equilibrium titration; remark: listed apart in the source
Description: as §1, §2

[14] = target: T2, human LTBP3-proTGFβ1 complex; assay: MSD-SET, solution equilibrium titration; remark: listed apart in the source
Description: as §1, §2

[15] = target: T3, human GARP-proTGFβ1 complex; assay: MSD-SET, solution equilibrium titration; remark: listed apart in the source
Description: as §1, §2

[16] = target: T4, human LRRC33-proTGFβ1 complex; assay: MSD-SET, solution equilibrium titration; remark: listed apart in the source
Description: as §1, §2

[17] = target: T8, murine LRRC33-proTGFβ1 complex; assay: MSD-SET, solution equilibrium titration; remark: listed apart in the source
Description: as §1, §2

[18] = target: rat LTBP1-proTGFβ1 complex (rat, UniProt Q00918 339-1712; P17246 30-390); assay: MSD-SET, solution equilibrium titration
Description: as §1, §2

[19] = target: T9, cynomolgus LTBP1-proTGFβ1 complex (cynomolgus monkey); assay: MSD-SET, solution equilibrium titration
T9 construct: also called Cyno LTBP1-proTGFβ1
Description: as §1, §2

[20] = target: T10, cynomolgus LRRC33-proTGFβ1 complex (cynomolgus monkey, UniProt A0A7N9CII2 32-663); assay: MSD-SET, solution equilibrium titration
T10 construct: also called Cyno LRRC33-proTGFβ1
Description: as §1, §2

[21] = target: T6, murine LTBP3-proTGFβ1 complex; assay: MSD-SET, solution equilibrium titration; MSD-SET, Table 21, mouse complex
[22] = target: T3, human GARP-proTGFβ1 complex; assay: MSD-SET solution equilibrium titration; Ab6 titrated against biotinylated hGARP-proTGFβ1, readout % free antigen
Description: as §1
as §2, with “The plate was washed again with wash buffer before adding 250 ng/ml SULFO-TAG-labeled streptavidin secondary reagent (MSD) in PBS with 0.1% BSA.” left out, “The binding data were processed by nonlinear curve fitting in Prism 7 software (Graphpad) to calculate equilibrium binding KD values.” left out

[23] = target: T4, human LRRC33-proTGFβ1 complex; assay: MSD-SET solution equilibrium titration; Ab6 titrated against biotinylated hLRRC33-proTGFβ1, readout % free antigen
Description: as §1
as §2, with “The plate was washed again with wash buffer before adding 250 ng/ml SULFO-TAG-labeled streptavidin secondary reagent (MSD) in PBS with 0.1% BSA.” left out, “The binding data were processed by nonlinear curve fitting in Prism 7 software (Graphpad) to calculate equilibrium binding KD values.” left out

T4 sequence (Q86YC3 other isoform, or with tags, fused parts or gaps limits assumed, chain 1 of 2): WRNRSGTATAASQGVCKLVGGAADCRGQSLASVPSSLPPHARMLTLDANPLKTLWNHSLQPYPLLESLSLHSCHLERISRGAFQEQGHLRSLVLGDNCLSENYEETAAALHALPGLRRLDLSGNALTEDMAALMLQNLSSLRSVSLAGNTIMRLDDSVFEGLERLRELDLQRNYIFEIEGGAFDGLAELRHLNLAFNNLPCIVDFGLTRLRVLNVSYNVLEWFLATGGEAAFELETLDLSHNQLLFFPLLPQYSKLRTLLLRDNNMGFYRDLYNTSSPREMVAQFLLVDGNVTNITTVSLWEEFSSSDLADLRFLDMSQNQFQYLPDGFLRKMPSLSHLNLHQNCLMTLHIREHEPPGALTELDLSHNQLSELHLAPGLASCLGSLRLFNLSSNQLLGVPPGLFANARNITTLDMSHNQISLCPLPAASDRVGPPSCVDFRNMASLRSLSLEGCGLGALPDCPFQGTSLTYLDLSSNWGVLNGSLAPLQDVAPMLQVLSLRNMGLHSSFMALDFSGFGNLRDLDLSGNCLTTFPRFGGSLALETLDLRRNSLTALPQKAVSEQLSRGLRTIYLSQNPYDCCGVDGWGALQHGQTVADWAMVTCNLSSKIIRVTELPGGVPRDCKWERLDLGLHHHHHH
T4 sequence (P01137 30-390 limits assumed, chain 2 of 2): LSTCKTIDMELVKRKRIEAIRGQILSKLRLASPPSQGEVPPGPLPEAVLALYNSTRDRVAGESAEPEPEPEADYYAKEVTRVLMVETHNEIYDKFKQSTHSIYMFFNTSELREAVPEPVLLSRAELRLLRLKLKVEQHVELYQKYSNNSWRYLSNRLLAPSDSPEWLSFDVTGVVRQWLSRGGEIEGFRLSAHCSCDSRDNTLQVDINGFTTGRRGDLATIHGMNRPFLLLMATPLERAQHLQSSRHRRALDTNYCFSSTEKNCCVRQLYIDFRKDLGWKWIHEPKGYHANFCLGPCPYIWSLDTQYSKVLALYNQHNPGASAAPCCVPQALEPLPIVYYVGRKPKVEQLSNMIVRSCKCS
T3 sequence (Q14392 20-627, chain 1 of 2): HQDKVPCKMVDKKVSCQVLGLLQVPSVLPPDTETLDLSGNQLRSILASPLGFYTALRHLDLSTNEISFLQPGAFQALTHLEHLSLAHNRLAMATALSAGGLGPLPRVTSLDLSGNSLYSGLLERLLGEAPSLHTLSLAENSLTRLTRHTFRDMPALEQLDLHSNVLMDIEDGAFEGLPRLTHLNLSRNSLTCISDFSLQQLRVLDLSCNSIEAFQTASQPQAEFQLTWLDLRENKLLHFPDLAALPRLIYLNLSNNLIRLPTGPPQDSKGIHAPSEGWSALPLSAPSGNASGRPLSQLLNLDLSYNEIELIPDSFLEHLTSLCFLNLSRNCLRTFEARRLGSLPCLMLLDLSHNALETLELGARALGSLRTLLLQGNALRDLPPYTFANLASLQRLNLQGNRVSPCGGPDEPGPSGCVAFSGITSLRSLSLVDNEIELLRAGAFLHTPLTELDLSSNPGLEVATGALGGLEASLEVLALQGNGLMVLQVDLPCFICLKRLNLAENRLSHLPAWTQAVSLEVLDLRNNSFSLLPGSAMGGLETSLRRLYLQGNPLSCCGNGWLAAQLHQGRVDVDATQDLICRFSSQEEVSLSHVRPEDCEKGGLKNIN
T3 sequence (P01137 30-390, chain 2 of 2): as the sequence (P01137 30-390 limits assumed, chain 2 of 2) above
T2 sequence (Q9NS15 866-1039 limits assumed, chain 1 of 2): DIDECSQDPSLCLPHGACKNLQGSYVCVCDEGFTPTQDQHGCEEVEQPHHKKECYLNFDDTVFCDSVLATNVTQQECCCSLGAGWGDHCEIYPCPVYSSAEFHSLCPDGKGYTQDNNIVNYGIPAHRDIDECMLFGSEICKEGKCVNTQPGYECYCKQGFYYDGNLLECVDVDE
T2 sequence (chain, as listed by the source limits assumed, chain 2 of 2): as the sequence (P01137 30-390 limits assumed, chain 2 of 2) above
T1 sequence (Q14766 873-1507 limits assumed, chain 1 of 2): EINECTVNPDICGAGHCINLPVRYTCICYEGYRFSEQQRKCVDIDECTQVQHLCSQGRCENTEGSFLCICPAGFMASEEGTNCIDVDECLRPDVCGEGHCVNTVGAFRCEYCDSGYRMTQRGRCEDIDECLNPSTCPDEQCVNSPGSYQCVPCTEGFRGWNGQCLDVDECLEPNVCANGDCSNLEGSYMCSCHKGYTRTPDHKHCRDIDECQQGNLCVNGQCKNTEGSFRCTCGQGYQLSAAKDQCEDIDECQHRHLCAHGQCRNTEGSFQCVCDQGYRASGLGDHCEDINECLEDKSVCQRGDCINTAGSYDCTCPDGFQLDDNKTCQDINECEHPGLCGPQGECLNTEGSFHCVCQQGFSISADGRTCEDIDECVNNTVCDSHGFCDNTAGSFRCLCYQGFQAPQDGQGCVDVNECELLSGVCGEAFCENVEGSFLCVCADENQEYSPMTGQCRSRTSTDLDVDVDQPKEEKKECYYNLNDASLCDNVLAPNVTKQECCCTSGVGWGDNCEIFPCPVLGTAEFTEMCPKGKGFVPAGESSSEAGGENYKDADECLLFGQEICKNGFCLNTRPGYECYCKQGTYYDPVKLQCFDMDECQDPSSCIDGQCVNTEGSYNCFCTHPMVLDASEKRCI
T1 sequence (chain, as listed by the source limits assumed, chain 2 of 2): as the sequence (P01137 30-390 limits assumed, chain 2 of 2) above
T6 sequence (Q61810 other isoform, or with tags, fused parts or gaps limits assumed, chain 1 of 2): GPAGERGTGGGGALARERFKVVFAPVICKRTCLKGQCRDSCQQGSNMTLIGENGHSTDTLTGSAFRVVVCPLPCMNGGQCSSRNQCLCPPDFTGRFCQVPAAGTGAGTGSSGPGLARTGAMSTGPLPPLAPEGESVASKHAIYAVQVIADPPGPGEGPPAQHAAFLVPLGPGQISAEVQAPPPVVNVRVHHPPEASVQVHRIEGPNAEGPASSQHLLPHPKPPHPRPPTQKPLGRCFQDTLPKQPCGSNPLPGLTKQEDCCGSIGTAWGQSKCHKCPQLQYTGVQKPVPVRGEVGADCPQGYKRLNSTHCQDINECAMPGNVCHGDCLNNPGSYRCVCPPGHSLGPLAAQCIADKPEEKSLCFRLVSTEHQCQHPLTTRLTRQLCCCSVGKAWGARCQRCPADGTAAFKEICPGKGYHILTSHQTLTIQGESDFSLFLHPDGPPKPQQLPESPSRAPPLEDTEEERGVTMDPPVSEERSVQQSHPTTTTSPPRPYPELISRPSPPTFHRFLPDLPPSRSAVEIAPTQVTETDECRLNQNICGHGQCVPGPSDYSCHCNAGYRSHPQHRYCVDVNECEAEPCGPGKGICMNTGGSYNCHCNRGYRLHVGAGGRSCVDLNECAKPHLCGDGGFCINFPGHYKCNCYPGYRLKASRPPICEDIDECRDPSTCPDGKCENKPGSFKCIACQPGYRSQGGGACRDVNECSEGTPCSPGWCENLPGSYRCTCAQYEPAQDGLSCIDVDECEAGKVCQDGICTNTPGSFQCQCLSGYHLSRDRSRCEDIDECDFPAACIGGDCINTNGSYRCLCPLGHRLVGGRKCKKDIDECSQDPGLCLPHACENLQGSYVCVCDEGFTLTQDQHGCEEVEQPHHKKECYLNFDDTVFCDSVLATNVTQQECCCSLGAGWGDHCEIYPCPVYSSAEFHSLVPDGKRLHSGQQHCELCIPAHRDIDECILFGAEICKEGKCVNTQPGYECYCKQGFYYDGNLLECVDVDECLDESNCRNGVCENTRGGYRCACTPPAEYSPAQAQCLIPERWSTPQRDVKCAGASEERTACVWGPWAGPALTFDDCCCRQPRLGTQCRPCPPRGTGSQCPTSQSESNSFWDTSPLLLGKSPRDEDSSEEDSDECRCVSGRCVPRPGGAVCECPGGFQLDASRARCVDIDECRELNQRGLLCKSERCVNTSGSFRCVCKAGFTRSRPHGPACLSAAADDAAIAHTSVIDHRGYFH
T6 sequence (P04202 30-390 limits assumed, chain 2 of 2): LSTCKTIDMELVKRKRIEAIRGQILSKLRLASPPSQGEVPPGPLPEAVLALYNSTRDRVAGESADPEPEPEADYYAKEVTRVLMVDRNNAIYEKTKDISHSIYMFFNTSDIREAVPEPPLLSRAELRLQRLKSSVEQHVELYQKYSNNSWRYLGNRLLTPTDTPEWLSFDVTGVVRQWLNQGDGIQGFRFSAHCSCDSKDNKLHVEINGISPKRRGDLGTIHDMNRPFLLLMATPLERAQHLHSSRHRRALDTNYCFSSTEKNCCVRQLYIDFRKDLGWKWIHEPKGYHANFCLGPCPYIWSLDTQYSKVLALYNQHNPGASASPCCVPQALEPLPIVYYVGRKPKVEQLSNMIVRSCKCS
T8 sequence (Q8BMT4 20-651 limits assumed, chain 1 of 2): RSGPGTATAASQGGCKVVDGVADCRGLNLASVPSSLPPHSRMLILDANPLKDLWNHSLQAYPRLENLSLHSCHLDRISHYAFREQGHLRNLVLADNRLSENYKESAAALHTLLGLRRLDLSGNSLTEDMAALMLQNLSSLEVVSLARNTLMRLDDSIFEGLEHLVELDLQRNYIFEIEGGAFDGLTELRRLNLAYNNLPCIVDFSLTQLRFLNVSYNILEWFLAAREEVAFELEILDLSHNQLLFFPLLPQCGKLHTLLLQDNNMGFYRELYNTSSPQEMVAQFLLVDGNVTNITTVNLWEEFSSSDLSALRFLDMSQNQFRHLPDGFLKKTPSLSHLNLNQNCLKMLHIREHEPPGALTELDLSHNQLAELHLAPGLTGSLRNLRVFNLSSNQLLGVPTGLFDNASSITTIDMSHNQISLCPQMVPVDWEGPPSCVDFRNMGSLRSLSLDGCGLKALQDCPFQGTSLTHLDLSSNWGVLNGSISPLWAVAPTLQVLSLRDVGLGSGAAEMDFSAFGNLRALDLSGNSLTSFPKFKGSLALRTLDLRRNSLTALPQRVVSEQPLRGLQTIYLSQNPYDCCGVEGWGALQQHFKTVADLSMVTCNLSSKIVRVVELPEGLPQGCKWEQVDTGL
T8 sequence (chain, as listed by the source limits assumed, chain 2 of 2): as the sequence (P04202 30-390 limits assumed, chain 2 of 2) above

B1: Ab6 (antibody, human IgG4 S228P, kappa, V domains shown)
VH: EVQLVESGGGLVQPGGSLRLSCTASGFTFSSFSMDWVRQAPGKGLEWVSYISPSADTIYYADSVKGRFTISRDNAKNTLYLQMNSLRAEDTAVYYCARGVLDYGDMLMPWGQGTLVTVSS
VL: DIQMTQSPSSLSASVGDRVTITCQASQDITNYLNWYQQKPGKAPKLLIYDASNLETGVPSRFSGSGSGTDFTFTISSLQPEDIATYYCQQADNHPPWTFGGGTKVEIKR
Kd [1]: 0.207 nM | Kd [2]: 0.123 nM | Kd [3]: 0.404 nM | Kd [4]: 0.336 nM | Kd [5]: 0.018 nM | Kd [6]: 0.029 nM | Kd [7]: 0.027 nM | Kd [8]: 0.063 nM | Kd [9]: 0.024 nM | Kd [10]: 0.028 nM | Kd [11]: 0.021 nM | Kd [12]: 0.048 nM | Kd [13]: 0.018 nM | Kd [14]: 0.029 nM | Kd [15]: 0.027 nM | Kd [16]: 0.063 nM | Kd [17]: 0.048 nM | Kd [18]: 0.035 nM | Kd [19]: 0.039 nM | Kd [20]: 0.093 nM | Kd [21]: 0.022 nM | IC50 (read off the curve) [22]: ~0.03 nM | IC50 (read off the curve) [23]: ~0.07 nM
